According to article PMC10397247:

Columns and labels:
Assay in all cases: two-hybrid library CCmax;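 further: natural log of median RNA to DNA barcode read ratio; higher means stronger binding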
[1] = target: T1, APC2375-AA
T1 chain: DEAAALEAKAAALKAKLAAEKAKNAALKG

[2] = target: T2, APC2474-AA; details: mean of both orientations
T2 chain: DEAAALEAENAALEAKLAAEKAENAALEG

[3] = target: T3, APC2543-AA; details: mean of both orientations
T3 chain: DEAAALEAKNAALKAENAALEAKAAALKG

[4] = target: T4, APC2556-AA; details: mean of both orientations
T4 chain: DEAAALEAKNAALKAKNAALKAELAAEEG

[5] = target: T5, APC2724-AA; details: mean of both orientations
T5 chain: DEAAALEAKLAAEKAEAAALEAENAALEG

[6] = target: T6, APC2811-AA; details: mean of both orientations
T6 chain: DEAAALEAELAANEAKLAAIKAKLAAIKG

[7] = target: T7, APC2981-AA; details: mean of both orientations
T7 chain: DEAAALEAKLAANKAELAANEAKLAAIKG

[8] = target: T8, APC3265-AA; details: mean of both orientations
T8 chain: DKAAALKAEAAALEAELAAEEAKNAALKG

[9] = target: T9, APC3323-AA; details: mean of both orientations
T9 chain: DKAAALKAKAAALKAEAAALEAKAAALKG

[10] = target: T10, APC3354-AA; details: mean of both orientations
T10 chain: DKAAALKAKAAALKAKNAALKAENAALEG

[11] = target: T11, APC3881-AA; details: mean of both orientations
T11 chain: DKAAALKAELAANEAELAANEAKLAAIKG

[12] = target: T12, APC4100-AA; details: mean of both orientations
T12 chain: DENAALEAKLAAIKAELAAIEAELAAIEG

[13] = target: T13, APC4336-AA; details: mean of both orientations
T13 chain: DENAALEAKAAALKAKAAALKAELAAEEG

[14] = target: T14, APC5009-AA; details: mean of both orientations
T14 chain: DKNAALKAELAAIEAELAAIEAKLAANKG

[15] = target: T15, APC542-AA; details: mean of both orientations
T15 chain: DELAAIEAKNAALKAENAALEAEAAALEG

[16] = target: T16, APC5531-AA; details: mean of both orientations
T16 chain: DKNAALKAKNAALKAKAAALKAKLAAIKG

[17] = target: T17, APC6088-AA; details: mean of both orientations
T17 chain: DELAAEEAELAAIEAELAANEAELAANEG

[18] = target: T18, APC7524-AA; details: mean of both orientations
T18 chain: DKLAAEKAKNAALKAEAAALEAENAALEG

[19] = target: T19, APC8401-AA; details: mean of both orientations
T19 chain: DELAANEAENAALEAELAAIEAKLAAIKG

[20] = target: T20, APC8516-AA; details: mean of both orientations
T20 chain: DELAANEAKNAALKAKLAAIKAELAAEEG

[21] = target: T21, APC9141-AA; details: mean of both orientations
T21 chain: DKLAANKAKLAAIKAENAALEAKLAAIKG

[22] = target: T22, APC9182-AA; details: mean of both orientations
T22 chain: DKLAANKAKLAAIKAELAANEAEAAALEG

[23] = target: T23, APC9291-AA; details: mean of both orientations
T23 chain: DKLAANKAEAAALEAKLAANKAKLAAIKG

[24] = target: T24, APC9806-AA; details: mean of both orientations
T24 chain: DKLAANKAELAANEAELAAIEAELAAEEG

interaction score [1]: -1.68 | interaction score [2]: -1.59 | interaction score [3]: -1.57 | interaction score [4]: -1.42 | interaction score [5]: -1.62 | interaction score [6]: -1.74 | interaction score [7]: -1.45 | interaction score [8]: -1.44 | interaction score [9]: -1.82 | interaction score [10]: -1.67 | interaction score [11]: -1.74 | interaction score [12]: -1.47 | interaction score [13]: -1.65 | interaction score [14]: -0.913 | interaction score [15]: -1.83 | interaction score [16]: -1.77 | interaction score [17]: -1.06 | interaction score [18]: -1.49 | interaction score [19]: -0.731 | interaction score [20]: -1.58 | interaction score [21]: -1.6 | interaction score [22]: -1.83 | interaction score [23]: -1.88 | interaction score [24]: -1.72
Binder: DEAAALEAKAAALKAKLAAEKAKNAALKG [APC2375-AA]
